Assay [1] deals with T1, HLA-A2/P68 peptide on T2 cells.
T1 construct: also called p68-DDX5
The assay is described as follows: FACS, T2 + P68 peptide.

In assay [2] the target is HLA-A2/MART1(26) control peptide on T2 cells (human). The assay is described as follows: FACS, T2 + MART1 peptide. (In general: A flow cytometer gives signals particle by particle.)
Assay [3] addresses HLA-A2/MAGE-A4-A2 peptide on T2 cells (human). The assay is described as follows: FACS (MFI) vs native peptide, Ala-mutant peptide on T2 cells.
For assay [4], the target named is HLA-A2/MAGE-A4-A4 peptide on T2 cells (human). Described as above.
Assay [5] concerns the target HLA-A2/MAGE-A4-A5 peptide on T2 cells (human). Described as above.
Assay [6] concerns the target HLA-A2/MAGE-A4-A6 peptide on T2 cells (human). The description is as above.
For assay [7], the target named is HLA-A2/MAGE-A4-A7 peptide on T2 cells (human). Described as above.

B1: 906-11-D11 TCR-like antibody (antibody, mouse IgG1, kappa, V domains shown)
VH: not shown
VL: DIQMTQSPSSLSASLGGKVTITCKASQDIHNYIAWYQHKPVKGPRLLIHYTSTLQPGTPSRFSGSGSGRDYSFSISNLEPEDIATYYCLQYDNLWTFGGGTKLEIKR
notes: also called Tyr D11
Regarding B1, the binding result in assay [1] and in assay [2] was “no binding” each time.

B2: 905-2-D7 TCR-like antibody (antibody, mouse IgG1, kappa, V domains shown)
VH: QVQLKESGPGLVAPSQSLSITCTVSGFSLTSYGVHWVRQPPGKGLEWLGVIWAGGTTNYNSALMSRLSISRDNSKSQVFLEMNSLQTDDTAIYYCARDGHFHFDFWGQGTTLTVSS
VL: DIQMTQSPASLSVSVGETVTITCRASDIIYSNLAWYQQKQGKSPQLLVYAATNLAAGVPSRFSGSGSGTQYSLKINSLQSEDFGTYYCQHFWGSSISFGSGTKLEIKR
notes: also called Tyr D7
On to B2, for which the binding result in assay [1] and in assay [2] was “no binding” throughout.

B3: C106B9 TCR-like antibody (antibody, mouse IgG1, kappa, V domains shown)
VH: QVQLQQSGGEVMKPGASVKLSCKATGYTFTGYWIEWIKQRPGHGLEWIGEILPGSGGTNYNEKFKGKATFTAHTSSNTAYMQLSSLTTEDSAIYYCARDSNSFTYWGQGTLVTVSS
VL: QIVLTQSPAIMSASPGEKVTITCSVSSSVDYIHWFQQKPGTSPKFWIYSTSILASGVPARFSGSGSGTSYSLTISRMEAEDAATYYCQQRSSYPPTFGSGTKLEIKR
notes: also called MAGE-A4 C106B9
Take B3: the “% decrease in binding” value is 33% in assay [3]; 90% in assay [4]; 90% in assay [5]; 90% in assay [6]; 90% in assay [7].

These data come from patent US20180179283A1 (ADICET BIO, published 2018).
